Source: publication PMC9601775 (Protein Science : A Publication of the Protein Society, 2022)
Numbering of substitutions follows the chain as printed. Names and notes keep the numbering of the source. Blank lines part the entries; values can stand above or below the binder they belong to.

How the values were obtained:
Experiment in all cases: SPR; Biacore 8K; EGFR extracellular domain immobilised on CM5 chip by amine coupling (~1000 RU); VHHs injected in two-fold serial dilutions at 30 μl/min; 25°C; PBS with 0.005% Tween20
Settings in all cases: both partners purified
[1] = target: T1, extracellular domain of epidermal growth factor receptor (EGFR), residues 1–618 (Homo sapiens (; human EGFR in …, UniProt P00533)
T1 construct: Epidermal growth factor receptor (EGFR), extracellular domain, residues 1-618; also called extracellular domain of EGFR; source: Sf9 expression system (baculovirus), purified from the culture supernatant (Ni-NTA, SEC)

[2] = target: T1, extracellular domain of epidermal …; remark: listed apart in the source
[3] = target: T1, extracellular domain of epidermal …; remark: listed apart in the source

B2: 7D12‐Vob E1Q‐Y42F‐L52F‐F106A (VHH)
VHH: QVQLVESGGGLVQPGGSLRLSCAASGRTSRSYGMGWFRQAPGKGREFVAGISWRGDSTGYADSVKGRFTISRDNAKNTLYLQMNSLRPEDTAVYYCAAAAGSAWYGTLYEYDYWGQGTLVTVSS
notes: PDB 7XL1) with the stated changes; IMGT numbering; also called quadruple mutant; source: E. coli BL21(DE3), periplasmic fraction, purified (Ni-NTA, SEC)
- Kd [2]: 4.7 nM

B3: 7D12‐Vob L52F (VHH)
VHH: B2 VHH with Q1E, F37Y, A98F
notes: PDB 7XL1) with the stated change; IMGT numbering; source: E. coli BL21(DE3), periplasmic fraction, purified (Ni-NTA, SEC)
- Kd [1]: 358 nM
- koff [1]: 0.123 s⁻¹
- kon [1]: 344000 M⁻¹ s⁻¹

B6: 7D12‐Vob (VHH)
VHH: B2 VHH with Q1E, F37Y, F47L, A98F
notes: CDRs of 7D12 grafted onto the framework regions of Vobarilizumab; PDB 7XL1; also called chimeric VHH; source: E. coli BL21(DE3), periplasmic fraction, purified (Ni-NTA, SEC)
- Kd [3]: 1450 nM
- koff [3]: 0.247 s⁻¹
- kon [3]: 169000 M⁻¹ s⁻¹

B7: 7D12‐Vob F106A (VHH)
VHH: B2 VHH with Q1E, F37Y, F47L
notes: as for B3
- Kd [1]: 482 nM
- koff [1]: 0.152 s⁻¹
- kon [1]: 316000 M⁻¹ s⁻¹

Now from value to binder:

- Kd [1]: 191 nM
- koff [1]: 0.137 s⁻¹
- kon [1]: 713000 M⁻¹ s⁻¹
B1: 7D12‐Vob Y42F (VHH)
VHH: B2 VHH with Q1E, F47L, A98F
notes: as for B3

- Kd [1]: 110 nM
- koff [1]: 0.0799 s⁻¹
- kon [1]: 729000 M⁻¹ s⁻¹
B4: 7D12‐Vob Y42F‐L52F (VHH)
VHH: B2 VHH with Q1E, A98F
notes: PDB 7XL1) with the stated changes; IMGT numbering; source: E. coli BL21(DE3), periplasmic fraction, purified (Ni-NTA, SEC)

- Kd [1]: 38 nM
- koff [1]: 0.0693 s⁻¹
- kon [1]: 1.82e+06 M⁻¹ s⁻¹
B5: 7D12‐Vob Y42F‐L52F‐F106A (VHH)
VHH: B2 VHH with Q1E
notes: PDB 7XL1) with the stated changes; IMGT numbering; also called triple mutant; source: E. coli BL21(DE3), periplasmic fraction, purified (Ni-NTA, SEC)
